Measurements: PMC4381056

Target: T1, MBD3-GFP (methyl-CpG-binding domain protein 3 fused to GFP), O95983
T1 chain: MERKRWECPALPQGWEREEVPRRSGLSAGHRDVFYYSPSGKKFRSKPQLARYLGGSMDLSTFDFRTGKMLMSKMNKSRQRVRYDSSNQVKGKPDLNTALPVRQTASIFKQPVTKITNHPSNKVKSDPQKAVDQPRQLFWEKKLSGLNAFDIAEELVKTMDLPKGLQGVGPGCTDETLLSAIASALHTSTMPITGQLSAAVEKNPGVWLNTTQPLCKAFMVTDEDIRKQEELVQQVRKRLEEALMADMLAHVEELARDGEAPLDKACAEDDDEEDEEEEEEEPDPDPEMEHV
Assay: photon counting histogram
Conditions: remark: other sources report otherwise

dimer percentage (G1-phase): 84%
dimer percentage (G2-phase): 16%
dimer percentage (S-phase): 48%
B1: MBD3-GFP (methyl-CpG-binding domain protein 3 fused to GFP), O95983 1-291 (natural protein)
chain: MERKRWECPALPQGWEREEVPRRSGLSAGHRDVFYYSPSGKKFRSKPQLARYLGGSMDLSTFDFRTGKMLMSKMNKSRQRVRYDSSNQVKGKPDLNTALPVRQTASIFKQPVTKITNHPSNKVKSDPQKAVDQPRQLFWEKKLSGLNAFDIAEELVKTMDLPKGLQGVGPGCTDETLLSAIASALHTSTMPITGQLSAAVEKNPGVWLNTTQPLCKAFMVTDEDIRKQEELVQQVRKRLEEALMADMLAHVEELARDGEAPLDKACAEDDDEEDEEEEEEEPDPDPEMEHV
